Data taken from patent US20200317768A1 (published 2020).
Residue numbers refer to the chain shown, from its start.

T1: cynomolgus monkey FcγRIIa3 extracellular domain, C-terminal His-tag (cynomolgus monkey)
T1 construct: also called cyno FcγRIIa3; cynoFcgRIIa3; not shown: His-tag added to C-terminus
T1 chain: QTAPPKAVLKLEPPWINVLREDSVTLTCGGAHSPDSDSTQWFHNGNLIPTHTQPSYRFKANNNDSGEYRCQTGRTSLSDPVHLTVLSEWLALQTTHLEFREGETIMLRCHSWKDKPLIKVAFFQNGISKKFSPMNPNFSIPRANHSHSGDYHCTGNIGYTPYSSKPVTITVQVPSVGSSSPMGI

T2: human FcγRIIaR extracellular domain, C-terminal His-tag (human, UniProt P12318 34-217)
T2 construct: also called human FcγRIIa (type R); FcgRIIaR; not shown: His-tag added to C-terminus
T2 chain: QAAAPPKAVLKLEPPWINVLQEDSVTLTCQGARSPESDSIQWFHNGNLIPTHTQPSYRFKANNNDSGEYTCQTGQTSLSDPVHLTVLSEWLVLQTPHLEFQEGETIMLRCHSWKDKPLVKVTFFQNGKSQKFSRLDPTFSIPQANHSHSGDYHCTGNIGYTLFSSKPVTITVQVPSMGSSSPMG

B1: M103205H795-MY229/M103202L889-SK1 (antibody, human IgG1, kappa)
heavy: QVTLKESGPVLVKPTETLTLTCTVSGIDLSHDDISWVRQAPGKGLEWVGIISYAGSTYYASWAKGRLTISKDTSKNQVVLTMTNMDPVDTATYYCARGVPAYSHGGDLWGQGTLVTVSSASTKGPSVFPLAPSSKSTSGGTAALGCLVKDYFPEPVTVSWNSGALTSGVHTFPAVLQSSGLYSLSSVVTVPSSSLGTQTYICNVNHKPSNTKVDKKVEPKSCDKTHTCPPCPAPELLGYPSVFLFPPKPKDTLMISRTPEVTCVVVDVSDEDPEVKFNWYVDGVEVHNAKTKPREELYNSTYRVVSVLTVLHQDWLNGKEYKCKVSNKALPKPIEKTISKAKGQPREPQVYTLPPSREEMTKNQVSLTCLVKGFYPSDIAVEWESNGQPENNYKTTPKVLDSDGSFFLYSKLTVDKSRWQQGNVFSCSVMHEALHNHYTQKSLSLSP
light: DIVMTQSPATLSLSPGERATLSCTSSQSVYHANWLSWFQQKPGQPPKLLIYWASTLAYGVPSRFSGSGSGTDFTLTISSLQPEDAATYYCAGGYGGGRYAFGQGTKVEIKRTVAAPSVFIFPPSDEQLKSGTASVVCLLNNFYPREAKVQWKVDNALQSGNSQESVTEQDSKDSTYSLSSTLTLSKADYEKHKVYACEVTHQGLSSPVTKSFNRGEC
B2: M103205H795-MY312/M103202L889-SK1 (antibody, human IgG1, kappa)
heavy: B1 heavy with G238T, Y239G, D270E, L297Q, K328T, K398M
light: B1 light
B3: M103205H795-MY310/M103202L889-SK1 (antibody, human IgG1, kappa)
heavy: B1 heavy with G238T, Y239G, D270E, L297Q, K328T, K398P
light: B1 light
B4: M103205H795-MY292/M103202L889-SK1 (antibody, human IgG1, kappa)
heavy: B1 heavy with K398M
light: B1 light
B5: M103205H795-MY242/M103202L889-SK1 (antibody, human IgG1, kappa)
heavy: B1 heavy with Y239G, P240I, L297Q
light: B1 light
B6: M103205H795-MY280/M103202L889-SK1 (antibody, human IgG1, kappa)
heavy: B1 heavy with G238V, Y239G, K398P
light: B1 light
B7: M103205H795-MY279/M103202L889-SK1 (antibody, human IgG1, kappa)
heavy: B1 heavy with G238H, Y239G, K398P
light: B1 light
B8: M103205H795-MY293/M103202L889-SK1 (antibody, human IgG1, kappa)
heavy: B1 heavy with D270E
light: B1 light
B9: M103205H795-MY276/M103202L889-SK1 (antibody, human IgG1, kappa)
heavy: B1 heavy with G238I, Y239G, L297Q
light: B1 light
B10: M103205H795-MY273/M103202L889-SK1 (antibody, human IgG1, kappa)
heavy: B1 heavy with G238L, Y239G, L297Q
light: B1 light
B11: M103205H795-MY281/M103202L889-SK1 (antibody, human IgG1, kappa)
heavy: B1 heavy with G238Q, Y239G, K398P
light: B1 light
B12: M103205H795-MY309/M103202L889-SK1 (antibody, human IgG1, kappa)
heavy: B1 heavy with G238T, Y239G, D270E, L297Q, K398M
light: B1 light
B13: M103205H795-MY308/M103202L889-SK1 (antibody, human IgG1, kappa)
heavy: B1 heavy with G238T, Y239G, D270E, L297Q, K398P
light: B1 light
B14: M103205H795-MY271/M103202L889-SK1 (antibody, human IgG1, kappa)
heavy: B1 heavy with G238V, Y239G, L297Q
light: B1 light
B15: M103205H795-MY321/M103202L889-SK1 (antibody, human IgG1, kappa)
heavy: B1 heavy with G238H, Y239G, L297Q, K398M
light: B1 light
B16: M103205H795-MY272/M103202L889-SK1 (antibody, human IgG1, kappa)
heavy: B1 heavy with G238Q, Y239G, L297Q
light: B1 light
B17: M103205H795-MY270/M103202L889-SK1 (antibody, human IgG1, kappa)
heavy: B1 heavy with G238H, Y239G, L297Q
light: B1 light
B18: M103205H795-MY269/M103202L889-SK1 (antibody, human IgG1, kappa)
heavy: B1 heavy with G238M, Y239G, L297Q
light: B1 light
B19: M103205H795-MY274/M103202L889-SK1 (antibody, human IgG1, kappa)
heavy: B1 heavy with G238T, Y239G, L297Q
light: B1 light
B20: M103205H795-MY278/M103202L889-SK1 (antibody, human IgG1, kappa)
heavy: B1 heavy with G238M, Y239G, K398P
light: B1 light
B21: M103205H795-MY311/M103202L889-SK1 (antibody, human IgG1, kappa)
heavy: B1 heavy with G238T, Y239G, D270E, K398P
light: B1 light
B22: M103205H795-MY318/M103202L889-SK1 (antibody, human IgG1, kappa)
heavy: B1 heavy with G238L, Y239G, D270E, L297Q, K328T, K398M
light: B1 light

Biological target: T1, cynomolgus monkey FcγRIIa3 …
Experiment: SPR (Biacore), antibody captured, FcgR analyte, 25 C

Row | Kd [nM] | Binder
1 | 1900 | B1
2 | 3700 | B2
3 | 7200 | B3
4 | 2200 | B4
5 | 5900 | B5
6 | 4600 | B6
7 | 4700 | B7
8 | 3900 | B8
9 | 4300 | B9
10 | 11000 | B10
11 | 9100 | B11
12 | 7000 | B12
13 | 1100 | B13
14 | 3100 | B14
15 | 2900 | B15
16 | 6200 | B16
17 | 2500 | B17
18 | 6400 | B18
19 | 2000 | B19
20 | 10000 | B20
21 | 8600 | B21
22 | 32000 | B22

Biological target: T2, human FcγRIIaR extracellular domain, …
Experiment: as above

Row | Kd [nM] | Binder
23 | 81 | B1
24 | 170 | B2
25 | 550 | B3
26 | 76 | B4
27 | 690 | B5
28 | 450 | B6
29 | 720 | B7
30 | 73 | B8
31 | 250 | B9
32 | 1000 | B10
33 | 390 | B11
34 | 260 | B12
35 | 360 | B13
36 | 2300 | B14
37 | 350 | B15
38 | 250 | B16
39 | 370 | B17
40 | 720 | B18
41 | 170 | B19
42 | 1300 | B20
43 | 450 | B21
44 | 1300 | B22
